# Measurements: US20040259798A1 (KARYON CTT, published 2004)
# Bridge positions count the residues as written; N and C are the ends. Ends that are not written are not given here.
# B1: phage displaying CPPDLFWYC (peptide)
# peptide: CPPDLFWYC
# B2: phage displaying CPCFLLGCC (LLG-C4) (peptide)
# peptide: CPCFLLGCC
# B3: phage displaying CWHKDLLGC (peptide)
# peptide: CWHKDLLGC
# B4: phage displaying CWKLLGSEEEC (peptide)
# peptide: CWKLLGSEEEC
# B5: phage displaying CWSMELLGC (peptide)
# peptide: CWSMELLGC
# B6: C(1-8;3-9) peptide (peptide)
# peptide: CPCFLLGCC
# modifications: disulfide 1-8, 3-9
# notes: also called LLG-C4 peptide; LLG-C4 nonapeptide
# Biological target: αMβ2 integrin (Mac-1) (UniProt P11215 17-1152; P05107 23-769)
# Experiment: phage display biopanning on coated αMβ2 integrin
# Procedure: The αMβ₂ integrin was purified by antibody affinity chromatography from buffy coats obtained from Finnish Red Cross Blood Transfusion Service as described previously (Li et al., 1995). Integrin diluted in Tris-buffered saline (TBS)/1 mM MnCl₂ was coated onto microtiter wells overnight at 4° C. using […] per well in the first biopanning and 100, 10 and 1 ng in subsequent pannings. The wells were blocked with 5% BSA in TBS for 1 h at 22° C. and then washed five times with TBS. Biopanning was performed using CX₇C and CX₉GC phage peptide libraries essentially as described (Koivunen et al., 1994). The construction of libraries was modified so that the single-stranded DNA encoding degenerate sequences was converted into a double-stranded form using 5 cycles of PCR with only the reverse primer and then 11 cycles with both the reverse and forward primer. A total of 6 μg of the double-stranded oligonucleotide was purified using QIAGEN PCR purification kit and ligated with 42 μg of the Fuse5 phage vector. The number of recombinants in the libraries was more than 10⁹. Phage binding, elution and subsequent amplification in E. coli were repeated five times, and after each panning bacterial colonies were picked up and stored in a 10 μl volume of TBS in microtiter wells at −20° C. For direct colony sequencing, […] aliquots of the thawed samples were subjected to PCR with 10 pmol each of the forward primer 5′ […] 3′ and the reverse primer 5′[…] 3′. The PCR conditions were 92° C. for 30 s, 60° C. for 30 s, and 72° C. for 60 s, and the cycle number was 35. One μl aliquot of the PCR reaction was taken for sequencing using 15 pmol of either one of the primers and analyzed on an ABI 310 apparatus (PE Applied Biosystems, Foster City, Calif.).
# After the fifh round of selection, the CX₇C library gave a 600-fold enrichment and CX₉GC a 1000-fold enrichment of phage bound to the integrin in comparison to background. […] Four of them contained the LLG tripeptide motif.
row,Binder,binding result
1,B1,binds
2,B2,binds
3,B3,binds
4,B4,binds
5,B5,binds

# Biological target: T1, αLβ2 integrin on Jurkat cells (UniProt P20701 26-1170; P05107 23-769, limits assumed)
# T1 construct: whole, on cells
# Experiment: inhibition of αLβ2-mediated Jurkat cell adhesion to ICAM-1-Fc (coated directly or captured via protein A), Crystal Violet staining
row,Binder,IC50
1,B6,~80 µM
